Laboratory results published in ChEMBL document CHEMBL1134791, “2- and 3-substituted 1,4-naphthoquinone derivatives as subversive substrates of trypanothione reductase and lipoamide dehydrogenase from Trypanosoma cruzi: synthesis and correlation between redox cycling activities and in vitro cytotoxicity” (J Med Chem, 2001).

What was measured:
Assay in all cases: Vmax is the maximum velocity of the TcTR (Trypanosoma cruzi trypanothione reductase) catalyzed NADPH oxidation.
[1] = substrate: CC1=C(CCC(=O)NCCCCNCCCNC(=O)CCC2=C(C)C(=O)c3cccc(O)c3C2=O)C(=O)c2c(O)cccc2C1=O
[2] = substrate: CC1=C(CCC(=O)NCCCCNCCCNC(=O)CCC2=C(C)C(=O)c3ccccc3C2=O)C(=O)c2ccccc2C1=O
[3] = substrate: CC1=C(CCC(=O)NCCCN2CCN(CCCNC(=O)CCC3=C(C)C(=O)c4cccc(O)c4C3=O)CC2)C(=O)c2c(O)cccc2C1=O
[4] = substrate: CC1=C(CCC(=O)NCCCN2CCN(CCCNC(=O)CCC3=C(C)C(=O)c4ccccc4C3=O)CC2)C(=O)c2ccccc2C1=O
[5] = substrate: CC1=C(CCC(=O)NCCCNCCCNC(=O)CCC2=C(C)C(=O)c3cccc(O)c3C2=O)C(=O)c2c(O)cccc2C1=O
[6] = substrate: CC1=C(CCC(=O)NCCCNCCCNC(=O)CCC2=C(C)C(=O)c3ccccc3C2=O)C(=O)c2ccccc2C1=O
[7] = substrate: CC1=C(CCCC(=O)NCCCCNCCCNC(=O)CCCC2=C(C)C(=O)c3cccc(O)c3C2=O)C(=O)c2c(O)cccc2C1=O
[8] = substrate: CC1=C(CCCC(=O)NCCCCNCCCNC(=O)CCCC2=C(C)C(=O)c3ccccc3C2=O)C(=O)c2ccccc2C1=O
[9] = substrate: CC1=C(CCCC(=O)NCCCN2CCN(CCCNC(=O)CCCC3=C(C)C(=O)c4cccc(O)c4C3=O)CC2)C(=O)c2c(O)cccc2C1=O
[10] = substrate: CC1=C(CCCC(=O)NCCCN2CCN(CCCNC(=O)CCCC3=C(C)C(=O)c4ccccc4C3=O)CC2)C(=O)c2ccccc2C1=O
[11] = substrate: CC1=C(CCCC(=O)NCCCNCCCNC(=O)CCCC2=C(C)C(=O)c3ccccc3C2=O)C(=O)c2ccccc2C1=O
[12] = substrate: CC1=C(CCCCC(=O)NCCCCNCCCNC(=O)CCCCC2=C(C)C(=O)c3cccc(O)c3C2=O)C(=O)c2c(O)cccc2C1=O
[13] = substrate: CC1=C(CCCCC(=O)NCCCN2CCN(CCCNC(=O)CCCCC3=C(C)C(=O)c4ccccc4C3=O)CC2)C(=O)c2ccccc2C1=O
[14] = substrate: CC1=C(CCCCC(=O)NCCCNCCCNC(=O)CCCCC2=C(C)C(=O)c3ccccc3C2=O)C(=O)c2ccccc2C1=O
[15] = substrate: CC1=C(CCCCCC(=O)NCCCCNCCCNC(=O)CCCCCC2=C(C)C(=O)c3cccc(O)c3C2=O)C(=O)c2c(O)cccc2C1=O
[16] = substrate: CC1=C(CCCCCC(=O)NCCCCNCCCNC(=O)CCCCCC2=C(C)C(=O)c3ccccc3C2=O)C(=O)c2ccccc2C1=O
[17] = substrate: CC1=C(CCCCCC(=O)NCCCN2CCN(CCCNC(=O)CCCCCC3=C(C)C(=O)c4cccc(O)c4C3=O)CC2)C(=O)c2c(O)cccc2C1=O
[18] = substrate: CC1=C(CCCCCC(=O)NCCCN2CCN(CCCNC(=O)CCCCCC3=C(C)C(=O)c4ccccc4C3=O)CC2)C(=O)c2ccccc2C1=O
[19] = substrate: CC1=C(CCCCCC(=O)NCCCNCCCNC(=O)CCCCCC2=C(C)C(=O)c3cccc(O)c3C2=O)C(=O)c2c(O)cccc2C1=O
[20] = substrate: CC1=CC(=O)c2ccccc2C1=O

B1: Trypanothione reductase (Trypanosoma cruzi), P28593 (protein)
chain: MMSKIFDLVVIGAGSGGLEAAWNAATLYKKRVAVIDVQMVHGPPFFSALGGTCVNVGCVPKKLMVTGAQYMEHLRESAGFGWEFDRTTLRAEWKKLIAVKDEAVLNINKSYEEMFRDTEGLEFFLGWGSLESKNVVNVRESADPASAVKERLETENILLASGSWPHMPNIPGIEHCISSNEAFYLPEPPRRVLTVGGGFISVEFAGIFNAYKPKDGQVTLCYRGEMILRGFDHTLREELTKQLTANGIQILTKENPAKVELNADGSKSVTFESGKKMDFDLVMMAIGRSPRTKDLQLQNAGVMIKNGGVQVDEYSRTNVSNIYAIGDVTNRVMLTPVAINEAAALVDTVFGTNPRKTDHTRVASAVFSIPPIGTCGLIEEVASKRYEVVAVYLSSFTPLMHNISGSKYKTFVAKIITNHSDGTVLGVHLLGDNAPEIIQGVGICLKLNAKISDFYNTIGVHPTSAEELCSMRTPSYYYVKGEKMEKPSEASL
[1]
  Vmax (µM min-1 mg-1): 4.44
[2]
  Vmax: 1.83 µM/min/mg
[3]
  Vmax: 4.74 µM/min/mg
[4]
  Vmax: 0.74 µM/min/mg
[5]
  Vmax: 12.4 µM/min/mg
[6]
  Vmax: 1.3 µmol/min/mg
[7]
  Vmax: 4 µM/min/mg
[8]
  Vmax: 2.04 µM/min/mg
[9]
  Vmax: 2.16 µM/min/mg
[10]
  Vmax: 0.6 µM/min/mg
[11]
  Vmax: 0.45 µM/min/mg
[12]
  Vmax: 3.11 µM/min/mg
[13]
  Vmax: 1.61 µM/min/mg
[14]
  Vmax: 0.34 µM/min/mg
[15]
  Vmax: 5.91 µM/min/mg
[16]
  Vmax: 1.2 µM/min/mg
[17]
  Vmax: 1.61 µM/min/mg
[18]
  Vmax: 0.47 µM/min/mg
[19]
  Vmax: 4.87 µM/min/mg
[20]
  Vmax: 0.26 µM/min/mg
